Measurements: US20200230166A1, “Oligonucleotides in food, beverage, cosmetic and medicinal formulations” (DNA Essence GmbH, priority 2015, published 2020)

Type: in vitro ADME
Procedure: In order to simulate the effect of digestion and oligonucleotide uptake without human trials and without harming endangered species, in vitro gastro-intestinal digestion experiments were performed. […] In short, oral, gastric and intestinal passage were simulated by emulating their respective chemical and enzymatic compositions.
The integrity of the oligonucleotides after in vitro digestion was determined through realtime PCR. Quantification of full length genes was performed using the Applied
Biosystems 7500 (Thermo Fisher Scientific Inc.) with the gScript™ One-Step SYBR® Green qRT-PCR Kit, ROX™ (QuantaBio Inc.) and oligonucleotide primers (Prim_SEQ1 for [ATGCCCTTGTCCAGTC], Prim_SEQ1 rev[CTAGAAAGCACAGCTG]) annealing (53° C.) at the ends of the full length gene. […] In order to simulate the in vitro passage of a traditional extract, a piece of dried beef meat (“beef jerky”, Bos taurus) was used and oligonucleotides for the corresponding growth factor 1 (GenBank: V00111.1) derived (for [acggctcagg gtccgtgaca], rev [ctaataaaat gaggaaattg]). Dried beef samples were rinsed in deionized, sterile water for 14 hours at 21° C. followed by an incubation with proteinase K (400 ng/mL, P2308 Sigma-Aldrich, USA) and guanidine hydrochloride (5 mol/L, CAS Number: 50-01-1) in 1 mL volume for 12 h at 55° C. […]

B1: SEQ ID NO: 1: growth hormone 1 (GH1) of Panthera tigris altaica (tiger) (nucleic acid)
DNA: ATGCCCTTGTCCAGTCTGTTTGCCAACGCCGTGCTCCGGGCCCAGCACCTGCACCAGCTGGCCGCCGACACCTACAAAGAGTTTGAGCGGGCGTACATCCCGGAGGGACAGAGGTATTCCATCCAGAACGCGCAGGCTGCCTTCTGCTTCTCGGAGACCATCCCGGCCCCCACGGGCAAGGACGAGGCCCAGCAGAGATCCGTGAGTGGCCAGGGGCGCCCGGCCAAGGATCAGGGGCCTCCCTCGTCTGCAGGAGTCAGGCCCTGGGCAGCCTTCTCCCTGGGGCCGAGGGTGTGCAGGGAGGCAGACTGGGCCTCTCCGTCCCTCTTCCCCTTTTTGCAGGAGCTGGAAGATGGCAGCCCCCGGGCCGGGCAGATCCTGAAGCAAACCTACGACAAGTTTGACACAAACTTGCGCAGTGACGACGCGCTGCTCAAGAACTATGGGCTCCTGTCCTGCTTCAAGAAGGACCTGCACAAGGCTGAGACGTACCTGCGGGTCATGAAGTGTCGCCGCTTCGTGGAAAGCAGCTGTGCTTTCTAG
modifications: Panthera tigris altaica
With B1 the “detection of full length gene oligonucleotide by realtime PCR” value was “easily detectable amounts” and the “crossing point (CP) of full length oligonucleotide in realtime PCR” value (after passing through the in vitro digestion assay, 1 million oligonucleotide molecules or more, of 40 cycles) was 23 cycles.
